What was measured:
[1] = target: HLA-A*01:01; assay: IEDB peptide-MHC binding, purified MHC/competitive/radioactivity; ≥ and ≤ were set here for values at or beyond the usual limits of such assays; settings: source organism: Triticum aestivum
[2] = target: HLA-B*08:01; assay: as above; settings: source organism: Triticum aestivum

| Sequence | IC50 [1] [nM] | IC50 [2] [nM] |
| --- | --- | --- |
| LIPCRDVVL | ≥ 100000 | 246 |
| LLQQCKPVSL | ≥ 100000 | 14 |
| LLSPRGKEL | ≥ 100000 | 91 |
| LQQCKPVSL | ≥ 100000 | 72 |
| MAMKIATAA | ≥ 100000 | 5.2 |
| MKTFLILAL | ≥ 100000 | 223 |
| MNIASASRL | ≥ 100000 | 368 |
| QGMHILLPL | ≥ 100000 | 73 |
| VMRQQCCQQL | ≥ 100000 | 162 |
| WLQQQLVPQL | ≥ 100000 | 286 |

More lines, now with the values ahead:

| IC50 [1] [nM] | IC50 [2] [nM] | Sequence |
| --- | --- | --- |
| ≥ 100000 | 48 | AMAMKIATA |
| ≥ 100000 | 465 | CAAIHTIIH |
| ≥ 100000 | 7.8 | FLLQQCKPV |
| ≥ 100000 | 112 | FPQQQRPFI |
| ≥ 100000 | 161 | LAMAMKIATA |
| ≥ 100000 | 303 | LEAIRSLVL |
| 33500 | 25 | LLQQSKPASL |
| 17100 | 353 | QLEAIRSLV |
| 103 | ≥ 100000 | SSQVLQQSTY |
| 365 | ≥ 100000 | VSFQQPQQQY |
